Results published in IntAct's records for PubMed 29039417.

B1: BBSome-interacting protein 1 (Homo sapiens), A8MTZ0 (parent)
chain: MLKAAAKRPELSGKNTISNNSDMAEVKSMFREVLPKQGPLFVEDIMTMVLCKPKLLPLKSLTLEKLEKMHQAAQNTIRQQEMAEKDQRQITH
partner: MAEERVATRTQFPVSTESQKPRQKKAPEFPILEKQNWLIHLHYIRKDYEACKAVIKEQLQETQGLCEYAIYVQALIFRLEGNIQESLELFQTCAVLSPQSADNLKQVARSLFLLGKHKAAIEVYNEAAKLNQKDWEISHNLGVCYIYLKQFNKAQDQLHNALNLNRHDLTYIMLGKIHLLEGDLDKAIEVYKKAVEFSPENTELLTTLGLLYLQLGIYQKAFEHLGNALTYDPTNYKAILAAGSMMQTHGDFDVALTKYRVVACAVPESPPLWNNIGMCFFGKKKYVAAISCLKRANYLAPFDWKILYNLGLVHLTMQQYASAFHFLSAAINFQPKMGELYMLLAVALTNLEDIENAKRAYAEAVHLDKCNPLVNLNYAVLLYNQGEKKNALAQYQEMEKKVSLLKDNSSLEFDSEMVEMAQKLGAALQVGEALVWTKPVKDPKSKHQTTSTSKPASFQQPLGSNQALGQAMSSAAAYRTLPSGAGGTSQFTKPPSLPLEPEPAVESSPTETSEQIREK

Variants of: B1
Details: with bbs4_human BBS4, Q96RK4

Variant	effect of a mutation on the interaction
MLKAAAKRPELSGKNTISNNSDMAEAKSMFREVLPKQGPLFVEDIMTMVLCKPKLLPLKSLTLEKLEKMHQAAQNTIRQQEMAEKDQRQITH	with no effect
MLKAAAKRPELSGKNTISNNSDMAEEKSMFREVLPKQGPLFVEDIMTMVLCKPKLLPLKSLTLEKLEKMHQAAQNTIRQQEMAEKDQRQITH	with no effect
MLKAAAKRPELSGANTISNNSDMAEVKSMFREVLPKQGPLFVEDIMTMVLCKPKLLPLKSLTLEKLEKMHQAAQNTIRQQEMAEKDQRQITH	with no effect
MLKAAAKRPELSGKNTISNNSDMAEVKSAFREVLPKQGPLFVEDIMTMVLCKPKLLPLKSLTLEKLEKMHQAAQNTIRQQEMAEKDQRQITH	with no effect
MLKAAAKRPELSAKNTISNNSDMAEVKSMFREVLPKQGPLFVEDIMTMVLCKPKLLPLKSLTLEKLEKMHQAAQNTIRQQEMAEKDQRQITH	with no effect
MLKAAAKRPELSEKNTISNNSDMAEVKSMFREVLPKQGPLFVEDIMTMVLCKPKLLPLKSLTLEKLEKMHQAAQNTIRQQEMAEKDQRQITH	with no effect
MLKAAAKRPELSGKNTISNNKDMAEVKSMFREVLPKQGPLFVEDIMTMVLCKPKLLPLKSLTLEKLEKMHQAAQNTIRQQEMAEKDQRQITH	with no effect
MLKAAAKRPELSGKNTISNNADMAEVKSMFREVLPKQGPLFVEDIMTMVLCKPKLLPLKSLTLEKLEKMHQAAQNTIRQQEMAEKDQRQITH	with no effect
MLKAAAKRPELSGKNTISNNEDMAEVKSMFREVLPKQGPLFVEDIMTMVLCKPKLLPLKSLTLEKLEKMHQAAQNTIRQQEMAEKDQRQITH	with no effect
MLKAAAKRPELSGKNTISKNSDMAEVKSMFREVLPKQGPLFVEDIMTMVLCKPKLLPLKSLTLEKLEKMHQAAQNTIRQQEMAEKDQRQITH	with no effect
MLKAAAKRPELSGKNTISENSDMAEVKSMFREVLPKQGPLFVEDIMTMVLCKPKLLPLKSLTLEKLEKMHQAAQNTIRQQEMAEKDQRQITH	with no effect
MLKAAAKRPELSGKNTISANSDMAEVKSMFREVLPKQGPLFVEDIMTMVLCKPKLLPLKSLTLEKLEKMHQAAQNTIRQQEMAEKDQRQITH	with no effect
MLKAAAKRPELSGKNTISNNSDMAEVESMFREVLPKQGPLFVEDIMTMVLCKPKLLPLKSLTLEKLEKMHQAAQNTIRQQEMAEKDQRQITH	with no effect
MLKAAAKRPELSGKNTISNNSDMAEVASMFREVLPKQGPLFVEDIMTMVLCKPKLLPLKSLTLEKLEKMHQAAQNTIRQQEMAEKDQRQITH	with no effect
MLKAAAKRPELSGKNTISNNSDMAEVLSMFREVLPKQGPLFVEDIMTMVLCKPKLLPLKSLTLEKLEKMHQAAQNTIRQQEMAEKDQRQITH	disrupting interaction strength
MLKAAAKRPELSGKNTISNNSKMAEVKSMFREVLPKQGPLFVEDIMTMVLCKPKLLPLKSLTLEKLEKMHQAAQNTIRQQEMAEKDQRQITH	with no effect
MLKAAAKRPELSGKNTISNNSAMAEVKSMFREVLPKQGPLFVEDIMTMVLCKPKLLPLKSLTLEKLEKMHQAAQNTIRQQEMAEKDQRQITH	with no effect
MLKAAAKRPELSGKNTISNNSDMEEVKSMFREVLPKQGPLFVEDIMTMVLCKPKLLPLKSLTLEKLEKMHQAAQNTIRQQEMAEKDQRQITH	with no effect

Variant	effect of a mutation on the interaction
MLKAAAKRPELSGKNTISNNSDMKEVKSMFREVLPKQGPLFVEDIMTMVLCKPKLLPLKSLTLEKLEKMHQAAQNTIRQQEMAEKDQRQITH	with no effect
MLKAAAKRPELSGKNTISNNSDKAEVKSMFREVLPKQGPLFVEDIMTMVLCKPKLLPLKSLTLEKLEKMHQAAQNTIRQQEMAEKDQRQITH	with no effect
MLKAAAKRPELSGKNTISNNSDAAEVKSMFREVLPKQGPLFVEDIMTMVLCKPKLLPLKSLTLEKLEKMHQAAQNTIRQQEMAEKDQRQITH	with no effect
MLKAAAKRPELSGKNTESNNSDMAEVKSMFREVLPKQGPLFVEDIMTMVLCKPKLLPLKSLTLEKLEKMHQAAQNTIRQQEMAEKDQRQITH	with no effect
MLKAAAKRPELSGKNTKSNNSDMAEVKSMFREVLPKQGPLFVEDIMTMVLCKPKLLPLKSLTLEKLEKMHQAAQNTIRQQEMAEKDQRQITH	with no effect
MLKAAAKRPELSGKNKISNNSDMAEVKSMFREVLPKQGPLFVEDIMTMVLCKPKLLPLKSLTLEKLEKMHQAAQNTIRQQEMAEKDQRQITH	with no effect
MLKAAAKRPELSGKNAISNNSDMAEVKSMFREVLPKQGPLFVEDIMTMVLCKPKLLPLKSLTLEKLEKMHQAAQNTIRQQEMAEKDQRQITH	with no effect
MLKAAAKRPELSGKNEISNNSDMAEVKSMFREVLPKQGPLFVEDIMTMVLCKPKLLPLKSLTLEKLEKMHQAAQNTIRQQEMAEKDQRQITH	with no effect
MLKAAAKRPELSGKNTIANNSDMAEVKSMFREVLPKQGPLFVEDIMTMVLCKPKLLPLKSLTLEKLEKMHQAAQNTIRQQEMAEKDQRQITH	with no effect
MLKAAAKRPELSGKNTIENNSDMAEVKSMFREVLPKQGPLFVEDIMTMVLCKPKLLPLKSLTLEKLEKMHQAAQNTIRQQEMAEKDQRQITH	with no effect
MLKAAAKRPELSGKNTIKNNSDMAEVKSMFREVLPKQGPLFVEDIMTMVLCKPKLLPLKSLTLEKLEKMHQAAQNTIRQQEMAEKDQRQITH	with no effect
MLKAAAKRPELKGKNTISNNSDMAEVKSMFREVLPKQGPLFVEDIMTMVLCKPKLLPLKSLTLEKLEKMHQAAQNTIRQQEMAEKDQRQITH	with no effect
MLKAAAKRPELSGKNTISNNSDMAEVKKMFREVLPKQGPLFVEDIMTMVLCKPKLLPLKSLTLEKLEKMHQAAQNTIRQQEMAEKDQRQITH	with no effect
MLKAAAKRPELSGKATISNNSDMAEVKSMFREVLPKQGPLFVEDIMTMVLCKPKLLPLKSLTLEKLEKMHQAAQNTIRQQEMAEKDQRQITH	with no effect
MLKAAAKRPELSGKETISNNSDMAEVKSMFREVLPKQGPLFVEDIMTMVLCKPKLLPLKSLTLEKLEKMHQAAQNTIRQQEMAEKDQRQITH	with no effect
MLKAAAKRPELSGKNTISNNSDMAAVKSMFREVLPKQGPLFVEDIMTMVLCKPKLLPLKSLTLEKLEKMHQAAQNTIRQQEMAEKDQRQITH	with no effect
MLKAAAKRPELSGKNTISNASDMAEVKSMFREVLPKQGPLFVEDIMTMVLCKPKLLPLKSLTLEKLEKMHQAAQNTIRQQEMAEKDQRQITH	with no effect

Second part, the variant after the results:

effect of a mutation on the interaction	Variant
with no effect	MLKAAAKRPELSGKNTISNNSDMAEKKSMFREVLPKQGPLFVEDIMTMVLCKPKLLPLKSLTLEKLEKMHQAAQNTIRQQEMAEKDQRQITH
disrupting interaction strength	MLKAAAKRPELSGLNTISNNSDMAEVKSMFREVLPKQGPLFVEDIMTMVLCKPKLLPLKSLTLEKLEKMHQAAQNTIRQQEMAEKDQRQITH
with no effect	MLKAAAKRPELSGENTISNNSDMAEVKSMFREVLPKQGPLFVEDIMTMVLCKPKLLPLKSLTLEKLEKMHQAAQNTIRQQEMAEKDQRQITH
with no effect	MLKAAAKRPELSGKNTISNNSDMAEVKSEFREVLPKQGPLFVEDIMTMVLCKPKLLPLKSLTLEKLEKMHQAAQNTIRQQEMAEKDQRQITH
with no effect	MLKAAAKRPELSKKNTISNNSDMAEVKSMFREVLPKQGPLFVEDIMTMVLCKPKLLPLKSLTLEKLEKMHQAAQNTIRQQEMAEKDQRQITH
disrupting interaction strength	MLKAAAKRPELSGKNTISNNSDMAEVSSMFREVLPKQGPLFVEDIMTMVLCKPKLLPLKSLTLEKLEKMHQAAQNTIRQQEMAEKDQRQITH
disrupting interaction strength	MLKAAAKRPELSGKNTISNNSDMAEVYSMFREVLPKQGPLFVEDIMTMVLCKPKLLPLKSLTLEKLEKMHQAAQNTIRQQEMAEKDQRQITH
with no effect	MLKAAAKRPELSGKNTISNNSEMAEVKSMFREVLPKQGPLFVEDIMTMVLCKPKLLPLKSLTLEKLEKMHQAAQNTIRQQEMAEKDQRQITH
with no effect	MLKAAAKRPELSGKNTISNNSDEAEVKSMFREVLPKQGPLFVEDIMTMVLCKPKLLPLKSLTLEKLEKMHQAAQNTIRQQEMAEKDQRQITH
with no effect	MLKAAAKRPELSGKNTASNNSDMAEVKSMFREVLPKQGPLFVEDIMTMVLCKPKLLPLKSLTLEKLEKMHQAAQNTIRQQEMAEKDQRQITH
with no effect	MLKAAAKRPELEGKNTISNNSDMAEVKSMFREVLPKQGPLFVEDIMTMVLCKPKLLPLKSLTLEKLEKMHQAAQNTIRQQEMAEKDQRQITH
with no effect	MLKAAAKRPELAGKNTISNNSDMAEVKSMFREVLPKQGPLFVEDIMTMVLCKPKLLPLKSLTLEKLEKMHQAAQNTIRQQEMAEKDQRQITH
with no effect	MLKAAAKRPELSGKNTISNNSDMAEVKAMFREVLPKQGPLFVEDIMTMVLCKPKLLPLKSLTLEKLEKMHQAAQNTIRQQEMAEKDQRQITH
with no effect	MLKAAAKRPELSGKNTISNNSDMAEVKEMFREVLPKQGPLFVEDIMTMVLCKPKLLPLKSLTLEKLEKMHQAAQNTIRQQEMAEKDQRQITH
with no effect	MLKAAAKRPELSGKKTISNNSDMAEVKSMFREVLPKQGPLFVEDIMTMVLCKPKLLPLKSLTLEKLEKMHQAAQNTIRQQEMAEKDQRQITH
with no effect	MLKAAAKRPELSGKNTISNNSDMAKVKSMFREVLPKQGPLFVEDIMTMVLCKPKLLPLKSLTLEKLEKMHQAAQNTIRQQEMAEKDQRQITH
with no effect	MLKAAAKRPELSGKNTISNKSDMAEVKSMFREVLPKQGPLFVEDIMTMVLCKPKLLPLKSLTLEKLEKMHQAAQNTIRQQEMAEKDQRQITH
with no effect	MLKAAAKRPELSGKNTISNESDMAEVKSMFREVLPKQGPLFVEDIMTMVLCKPKLLPLKSLTLEKLEKMHQAAQNTIRQQEMAEKDQRQITH
